Measurements from the supplement of paper PMC10567573.

B1: FAM9B (parent)
chain: EDLTAKRKRMKMDKTCSKTKNKSK

Variants of: B1
Assay: protein stability index of a GFP-peptide fusion (GPS, HEK-293T) (PSI 1-6); higher = more stable
Conditions: c terminus: a fixed tail appended
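Also: lentivirally expressed fusions sorted by FACS into six bins by GFP to DsRed ratio, PSI derived from sequencing read proportions per bin multiplied by bin number.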

Variant	protein stability index
EDLTAKRKRMKMDKTMSKTKNKSK	5.27
EDLTAKRKRMKMDKTISKTKNKSK	4.71
EDLTAKRKRMKMDKTFSKTKNKSK	4.93
EDLTAKRKRMKMDKTVSKTKNKSK	5.53
EDLTAKRKRMKMDKTYSKTKNKSK	5.54
EDLTAKRKRMKMDKTWSKTKNKSK	5.08
EDLTAKRKRMKMDKTKSKTKNKSK	4.96
EDLTAKRKRMKMDKTHSKTKNKSK	4.66
EDLTAKRKRMKMDKTNSKTKNKSK	5.46
EDLTAKRKRMKMDKTGSKTKNKSK	4.11
EDLTAKRKRMKMDKTESKTKNKSK	5.47
EDLTAKRKRMKMDKTTSKTKNKSK	5.63
EDLTAKRKRMKMDKTASKTKNKSK	4.69
EDLTAKRKRMKMDKTDSKTKNKSK	5.67
EDLTAKRKRMKMDKTPSKTKNKSK	5.57
EDLTAKRKRMKMDKTRSKTKNKSK	5.47
EDLTAKRKRMKMDKTQSKTKNKSK	5.45
EDLTAKRKRMKMDKTSSKTKNKSK	5.33
EDLTAKRKRMKMDKTLSKTKNKSK	5.05
EDLTAKRKRMKMDKPCSKTKNKSK	5
EDLTAKRKRMKMDKSCSKTKNKSK	4.24
EDLTAKRKRMKMDKQCSKTKNKSK	5.42
EDLTAKRKRMKMDKWCSKTKNKSK	4.78
EDLTAKRKRMKMDKNCSKTKNKSK	5.33

Variant	protein stability index
EDLTAKRKRMKMDKGCSKTKNKSK	4.55
EDLTAKRKRMKMDKDCSKTKNKSK	4.91
EDLTAKRKRMKMDKECSKTKNKSK	5.2
EDLTAKRKRMKMDKHCSKTKNKSK	4.6
EDLTAKRKRMKMDKLCSKTKNKSK	5.07
EDLTAKRKRMKMDKFCSKTKNKSK	4.8
EDLTAKRKRMKMDKKCSKTKNKSK	4.48
EDLTAKRKRMKMDKVCSKTKNKSK	4.9
EDLTAKRKRMKMDKRCSKTKNKSK	4.88
EDLTAKRKRMKMDKYCSKTKNKSK	5
EDLTAKRKRMKMDKCCSKTKNKSK	5.36
EDLTAKRKRMKMDKMCSKTKNKSK	5.11
EDLTAKRKRMKMDKACSKTKNKSK	5
EDLTAKRKRMKMDKICSKTKNKSK	5.12
EDLTAKRKRMKMDQTCSKTKNKSK	4.99
EDLTAKRKRMKMDSTCSKTKNKSK	5.03
EDLTAKRKRMKMDETCSKTKNKSK	5.07
EDLTAKRKRMKMDFTCSKTKNKSK	4.48
EDLTAKRKRMKMDMTCSKTKNKSK	5.45
EDLTAKRKRMKMDITCSKTKNKSK	3.76
EDLTAKRKRMKMDATCSKTKNKSK	4.99
EDLTAKRKRMKMDVTCSKTKNKSK	5.07
EDLTAKRKRMKMDWTCSKTKNKSK	4.73
EDLTAKRKRMKMDYTCSKTKNKSK	5.22

Variant	protein stability index
EDLTAKRKRMKMDHTCSKTKNKSK	5.36
EDLTAKRKRMKMDDTCSKTKNKSK	5.14
EDLTAKRKRMKMDTTCSKTKNKSK	5.03
EDLTAKRKRMKMDGTCSKTKNKSK	5.19
EDLTAKRKRMKMDPTCSKTKNKSK	5.37
EDLTAKRKRMKMDLTCSKTKNKSK	4.83
EDLTAKRKRMKMDNTCSKTKNKSK	5.51
EDLTAKRKRMKMDRTCSKTKNKSK	5.37
EDLTAKRKRMKMDCTCSKTKNKSK	4.41
EDLTAKRKRMKMDKTCSETKNKSK	5.6
EDLTAKRKRMKMDKTCSATKNKSK	4.86
EDLTAKRKRMKMDKTCSHTKNKSK	5.3
EDLTAKRKRMKMDKTCSGTKNKSK	4.83
EDLTAKRKRMKMDKTCSFTKNKSK	3.92
EDLTAKRKRMKMDKTCSCTKNKSK	4.96
EDLTAKRKRMKMDKTCSDTKNKSK	5.07
EDLTAKRKRMKMDKTCGKTKNKSK	5.02
EDLTAKRKRMKMDKTCEKTKNKSK	5.73
EDLTAKRKRMKMDKTCTKTKNKSK	5.32
EDLTAKRKRMKMDKTCKKTKNKSK	4.55
EDLTAKRKRMKMDKTCHKTKNKSK	4.8
EDLTAKRKRMKMDKTCWKTKNKSK	5.02
EDLTAKRKRMKMDKTCFKTKNKSK	4.24
EDLTAKRKRMKMDKTCCKTKNKSK	5.05

Variant	protein stability index
EDLTAKRKRMKMDKTCAKTKNKSK	4.7
EDLTAKRKRMKMDKTCVKTKNKSK	4.88
EDLTAKRKRMKMDKTCYKTKNKSK	5.08
EDLTAKRKRMKMDKTCNKTKNKSK	5.85
EDLTAKRKRMKMDKTCIKTKNKSK	5.21
EDLTAKRKRMKMDKTCMKTKNKSK	5.39
EDLTAKRKRMKMDKTCPKTKNKSK	4.93
EDLTAKRKRMKMDKTCQKTKNKSK	5.34
EDLTAKRKRMKMQKTCSKTKNKSK	5.41
EDLTAKRKRMKMKKTCSKTKNKSK	4.7
EDLTAKRKRMKMVKTCSKTKNKSK	5.36
EDLTAKRKRMKMWKTCSKTKNKSK	4.8
EDLTAKRKRMKMMKTCSKTKNKSK	3.91
EDLTAKRKRMKMNKTCSKTKNKSK	5.3
EDLTAKRKRMKMTKTCSKTKNKSK	5.01
EDLTAKRKRMKMYKTCSKTKNKSK	5.14
EDLTAKRKRMKMPKTCSKTKNKSK	4.66
EDLTAKRKRMKMIKTCSKTKNKSK	4.89
EDLTAKRKRMKMLKTCSKTKNKSK	4.77
EDLTAKRKRMKMHKTCSKTKNKSK	4.64
EDLTAKRKRMKMSKTCSKTKNKSK	4.89
EDLTAKRKRMKMRKTCSKTKNKSK	4.49
